PMC6509562, “Properties of the HtrA Protease From Bacterium Helicobacter pylori Whose Activity Is Indispensable for Growth Under Stress Conditions” (Frontiers in Microbiology, 2019)

Columns and labels:
[1] = biological target: HtrAHpS221A from H. pylori strain N6 (Helicobacter pylori strain N6) (UniProt B5Z6H5); assay: AUC
[2] = biological target: the molecule itself; assay: SEC; Superose 12HR 10/30, 300 mM NaCl, 50 mM Na-phosphate pH 6.5 or 8.0, room temperature; refolded HtrA variant 41 uM without substrate

HtrAHpS221A from H. pylori strain N6 (from UniProt B5Z6H5 1-476) (enzyme)
content of peak 1 (6.1 S) at 0.65 mg/ml [1]: 38% | content of peak 1 (6.1 S) at 1.6 mg/ml [1]: 38% | content of peak 1 (6.1 S) at 3.3 mg/ml [1]: 38% | content of peak 2 (8.9 S) at 3.3 mg/ml [1]: 3.4% | content of peak 3 (10.3 S) at 1.6 mg/ml [1]: 8.8% | content of peak 3 (10.6 S) at 3.3 mg/ml [1]: 5.1% | content of peak 3 (11.0 S) at 0.65 mg/ml [1]: 12% | content of peak 4 (12.4 S) at 3.3 mg/ml [1]: 3.8% | content of peak 4 (13.0 S) at 1.6 mg/ml [1]: 3.2% | content of peak 5 (15.7 S) at 3.3 mg/ml [1]: 9% | content of peak 5 (15.8 S) at 0.65 mg/ml [1]: 8.1% | content of peak 5 (15.8 S) at 1.6 mg/ml [1]: 7.9% | content of peak 6 (19.5 S) at 3.3 mg/ml [1]: 28% | content of peak 6 (19.9 S) at 0.65 mg/ml [1]: 29% | content of peak 6 (19.9 S) at 1.6 mg/ml [1]: 30% | content of peak 7 (22.8 S) at 3.3 mg/ml [1]: 3.1% | content of peak 8 (24.5 S) at 0.65 mg/ml [1]: 4.8% | content of peak 8 (25.6 S) at 1.6 mg/ml [1]: 5.9% | content of peak 8 (25.8 S) at 3.3 mg/ml [1]: 3.6%

B1: HtrAEcS210A from Escherichia coli (enzyme, UniProt P0C0V0 27-474, looked up)
chain: AETSSATTAQQMPSLAPMLEKVMPSVVSINVEGSTTVNTPRMPRNFQQFFGDDSPFCQEGSPFQSSPFCQGGQGGNGGGQQQKFMALGSGVIIDADKGYVVTNNHVVDNATVIKVQLSDGRKFDAKMVGKDPRSDIALIQIQNPKNLTAIKMADSDALRVGDYTVAIGNPFGLGETVTSGIVSALGRSGLNAENYENFIQTDAAINRGNAGGALVNLNGELIGINTAILAPDGGNIGIGFAIPSNMVKNLTSQMVEYGQVKRGELGIMGTELNSELAKAMKVDAQRGAFVSQVLPNSSAAKAGIKAGDVITSLNGKPISSFAALRAQVGTMPVGSKLTLGLLRDGKQVNVNLELQQSSQNQVDSSSIFNGIEGAEMSNKGKDQGVVVNNVKTGTPAAQIGLKKGDVIIGANQQAVKNIAELRKVLDSKPSVLALNIQRGDSTIYLLMQ
notes: also called DegP S210A; S/A
stoichiometry N [2]: 6
